The target in the assay is FITC–BID BH3. As to the kind of experiment: fluorescence polarisation.

pEC50: −log10 of the molar value.

Sequence of MAIM1-derivatized MCL-1ΔNΔC (Q07820 172-327, stated change not applied): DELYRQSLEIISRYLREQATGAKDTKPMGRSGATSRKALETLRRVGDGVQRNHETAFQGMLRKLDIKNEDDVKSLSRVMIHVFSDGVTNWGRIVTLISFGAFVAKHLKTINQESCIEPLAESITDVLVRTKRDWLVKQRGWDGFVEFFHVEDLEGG
Sequence of MCL-1ΔNΔC (Q07820 172-327, stated change not applied): as above

“MAIM1-derivatized MCL-1ΔNΔC (from UniProt Q07820 172-327) (domain or fragment)” had a negative logarithm of the EC50 (pEC50) of 7.07. Under “MCL-1ΔNΔC (from UniProt Q07820 172-327) (domain or fragment)” stands 7.68. Under “MCL-1ΔNΔC C286W (from UniProt Q07820 172-327) (domain or fragment)” stands 6.96.

These data come from paper PMC4900187.
